The values below come from the RNAGym collection of RNA variant scans (doi:10.7554/elife.90254).

B1: OR4K15 (parent)
chain: GUUAACGGUCAUAGGCCAUGGAAACUAGGAGCACCAUUUCGCUGCCAGUGAAGAAAUGAACAAAGAAAAUCUGGGCCAGGCAGGCAUCAAAAGAAAUAGUCUUGCGCUCAACCAGAAAGUCUGUAAUCAUUUUAAGGGUA

In this series the parent is B1. In words: self-cleavage, relative activity (ratio to wild type); higher = more cleavage; in vitro, sequencing; the parent is a self-cleaving ribozyme.
On to G73A A95G, for which the self-cleavage was 0.28.

Turning to U19A C109U, the self-cleavage is 0.16.

For A5G A126G, the self-cleavage was determined as 0.69.

Take G75A A135G: the self-cleavage turned out to be 0.04.

Take A11U U49C: the self-cleavage stood at 1.38.

A11U A89G: the self-cleavage came to 1.21.

On to C112G U124C, for which the self-cleavage is 0.

For the variant A94G U127A, the self-cleavage was 2.55.

Take A36G A62G: the self-cleavage amounted to 1.94.

Regarding U39G A129G, the self-cleavage worked out at 0.86.

Take C77U U132C: the self-cleavage came to 1.95.

Turning to U108A A116G, the self-cleavage was 0.01.

Regarding G106A U122A, the self-cleavage was determined as 0.01.

On to A36U A126U, for which the self-cleavage came to 1.63.

Turning to U87A U133C, the self-cleavage amounted to 1.05.

With U9C C76A, the self-cleavage was 0.07.

Consider C6U G44A, for which the self-cleavage stood at 1.34.

Regarding C10U U108C, the self-cleavage came to 0.06.

As for A27U U102C, the self-cleavage was 2.12.

Turning to A95G A114G, the self-cleavage turned out to be 1.17.

Take G31A U43A: the self-cleavage amounted to 2.08.

For the variant A18G U38A, the self-cleavage was 1.27.

For the variant U2C U9A, the self-cleavage was found to be 0.57.

Regarding A64G U102A, the self-cleavage is 0.68.

On to A95G A140G, for which the self-cleavage is 1.73.

A117U A129U: the self-cleavage came out at 0.62.

Consider A66G A129U, for which the self-cleavage worked out at 1.47.

For the variant A52G U108A, the self-cleavage turned out to be 0.02.

As to A54G C81U, the self-cleavage was 0.19.

For the variant U43A A89U, the self-cleavage was found to be 1.74.

Regarding A98U A117G, the self-cleavage turned out to be 1.63.

With G41A A56G, the self-cleavage is 2.07.

A36G C76U: the self-cleavage came to 0.12.

Consider A134G A140G, for which the self-cleavage is 0.28.

In the case of U124C A125G, the self-cleavage worked out at 1.32.

Consider C42G U43A, for which the self-cleavage worked out at 1.91.

As to U43C U127C, the self-cleavage is 0.89.

For G48A A110G, the self-cleavage came out at 0.12.

For U57A U127A, the self-cleavage worked out at 1.95.

On to U38C U49C, for which the self-cleavage is 1.21.

On to A63G A92G, for which the self-cleavage came to 1.66.

Turning to A117U U131G, the self-cleavage was 1.38.

Turning to A59G U131A, the self-cleavage was 1.54.

As to A13G A98U, the self-cleavage was 1.29.

For the variant U43C G123A, the self-cleavage was determined as 2.35.

With G53U A66U, the self-cleavage was 1.77.

As to U12C A47G, the self-cleavage stood at 1.3.

On to U2C A33G, for which the self-cleavage worked out at 0.74.

In the case of U12C A22U, the self-cleavage was found to be 0.66.

Take U70A A90G: the self-cleavage turned out to be 1.12.

In the case of A98G A125U, the self-cleavage is 0.84.

Take C71U U72A: the self-cleavage came to 0.19.

As to G41A A92G, the self-cleavage came to 0.97.

As to U43C U132A, the self-cleavage was found to be 1.82.

With A55G A95C, the self-cleavage is 1.02.

Take U72A C85U: the self-cleavage is 0.36.

Regarding A36C A69C, the self-cleavage is 1.47.

Consider A90U U120C, for which the self-cleavage amounted to 1.63.

For the variant A47U A59U, the self-cleavage came out at 0.57.

With A11G U38A, the self-cleavage worked out at 0.86.

With A110U A135G, the self-cleavage is 1.63.

C34U A68G: the self-cleavage turned out to be 1.8.

Take U57C A117C: the self-cleavage amounted to 0.7.

As for A89G G99A, the self-cleavage turned out to be 1.15.

As to U102C C128A, the self-cleavage is 2.11.

For the variant G14A U130C, the self-cleavage was determined as 0.45.

Take A47U A98U: the self-cleavage worked out at 1.79.

Turning to U39G A92G, the self-cleavage was found to be 1.57.

Turning to U37C U133A, the self-cleavage came to 1.34.

For the variant U9C A23U, the self-cleavage turned out to be 1.07.

Turning to U2A U139G, the self-cleavage is 0.81.

As to A54U G74U, the self-cleavage was determined as 0.02.

U87C G123A: the self-cleavage is 1.78.

Turning to A63G U120C, the self-cleavage turned out to be 1.27.

For the variant U12C U72C, the self-cleavage is 0.18.

U72A A135U: the self-cleavage worked out at 0.14.

For the variant A129G U139C, the self-cleavage was 0.85.

As to U43A A90U, the self-cleavage came to 1.74.

Regarding U70C U133C, the self-cleavage stood at 0.98.

In the case of U131C A135G, the self-cleavage is 1.55.

Consider A60G A82G, for which the self-cleavage was 0.21.

Turning to A66C U127C, the self-cleavage came out at 0.14.

For U87C A95C, the self-cleavage was 0.32.

Consider U37C A82G, for which the self-cleavage worked out at 0.69.

U38C A54G: the self-cleavage was 1.17.

For the variant U3C A117U, the self-cleavage was found to be 1.02.

G1U U139C: the self-cleavage was found to be 0.98.

For the variant A126C U132G, the self-cleavage is 0.89.

With G28A A89U, the self-cleavage is 1.38.

For U108C U132A, the self-cleavage came out at 0.02.

In the case of U87A A117G, the self-cleavage is 1.12.

As for U2C U12G, the self-cleavage was determined as 0.39.

As to A63G G79A, the self-cleavage was determined as 0.11.

Consider A68G A91G, for which the self-cleavage was 1.18.

As for U102C A117G, the self-cleavage worked out at 2.72.

Consider A67U A92G, for which the self-cleavage was 2.2.

Consider A51C U124C, for which the self-cleavage turned out to be 0.98.

Regarding C35U U131C, the self-cleavage came out at 0.58.

In the case of U39C A118G, the self-cleavage amounted to 1.71.

With U70C A126G, the self-cleavage was found to be 0.96.

On to U127C U130A, for which the self-cleavage is 0.35.

Take A13G A54U: the self-cleavage was found to be 0.74.

A59G A129G: the self-cleavage was determined as 1.16.

For the variant A18C A54G, the self-cleavage is 0.89.

A47C U108C: the self-cleavage is 0.02.

Take U72C A78G: the self-cleavage amounted to 0.25.

As to G7U A67G, the self-cleavage was found to be 1.28.

For the variant G53U A114U, the self-cleavage came to 0.19.

As for C42A A91U, the self-cleavage was found to be 0.86.

As for A33G A82U, the self-cleavage amounted to 0.1.

For U2G A11U, the self-cleavage turned out to be 1.51.

With U39C A140G, the self-cleavage came out at 1.57.

On to A62U A125G, for which the self-cleavage was determined as 0.71.

For U100C U108A, the self-cleavage turned out to be 0.02.

For A13G C17U, the self-cleavage turned out to be 1.46.

In the case of U103C A118G, the self-cleavage was found to be 0.22.

Take A56G A114U: the self-cleavage worked out at 0.08.

Take A56G A114G: the self-cleavage stood at 0.31.

As for U49C, the self-cleavage amounted to 1.12.

As to A33U A95G, the self-cleavage is 1.66.

Take A63G A91G: the self-cleavage was 0.98.

With A96G U103A, the self-cleavage came to 1.08.

In the case of A5G A36U, the self-cleavage was determined as 1.13.

For A78U U127A, the self-cleavage was 0.8.

In the case of U3C A69G, the self-cleavage was 1.6.

Consider U19C U39A, for which the self-cleavage was determined as 2.15.

With A47G U132C, the self-cleavage came out at 0.47.

With C34A A82G, the self-cleavage was 0.76.

For A66G U130A, the self-cleavage came out at 0.6.

In the case of C40A A69G, the self-cleavage is 1.65.

Regarding A68G A82U, the self-cleavage amounted to 0.22.

As to U103G G137A, the self-cleavage came to 0.1.

Regarding A55U A82G, the self-cleavage was found to be 0.61.

With A18G A60G, the self-cleavage is 0.97.

Regarding A23U A54U, the self-cleavage came out at 1.61.

Turning to A4U A56G, the self-cleavage was found to be 0.98.

Regarding A56C A59G, the self-cleavage came to 1.51.

Regarding A27U U49C, the self-cleavage was determined as 2.12.

A27G A95U: the self-cleavage stood at 1.2.

For the variant C32G A96U, the self-cleavage came out at 1.87.

Take G31A U57C: the self-cleavage stood at 1.2.

Take A52G A92U: the self-cleavage is 1.52.

With G7U U131C, the self-cleavage turned out to be 1.14.

For U2C A135G, the self-cleavage amounted to 1.32.

For the variant U3C A68G, the self-cleavage was determined as 0.86.

Regarding A13U A56G, the self-cleavage turned out to be 1.44.

With A11G A140G, the self-cleavage was found to be 0.96.

Take G65U: the self-cleavage was 2.

Consider G99U, for which the self-cleavage was found to be 0.51.

Regarding A23U G41C, the self-cleavage is 2.09.

For G14A U127C, the self-cleavage came out at 0.28.

On to G104A A110U, for which the self-cleavage turned out to be 0.02.

As for U70C A117U, the self-cleavage turned out to be 0.59.

As to A52G A54G, the self-cleavage turned out to be 1.41.

On to U9C A91U, for which the self-cleavage was 1.49.

Consider G20U U122A, for which the self-cleavage was determined as 2.45.

Regarding A33U A54G, the self-cleavage is 0.76.

As to G31A U139C, the self-cleavage worked out at 1.82.

As to A90G, the self-cleavage turned out to be 0.95.

Consider U9A U103C, for which the self-cleavage was determined as 0.49.

Regarding U3C A125G, the self-cleavage came out at 0.74.

As to A64C A96G, the self-cleavage came out at 1.27.

Consider A52G U72C, for which the self-cleavage amounted to 0.27.

G53U U100C: the self-cleavage came out at 2.06.

On to A82U A117G, for which the self-cleavage worked out at 0.28.

As for U43C U120C, the self-cleavage amounted to 0.46.

Consider A110U A140G, for which the self-cleavage turned out to be 2.04.
